Source: US20200271651

T1: FluHSA2 fluorogenic peptide
T1 chain: TKCATESAVNRRPCFSALK

T2: fluorescent labeled elastin protein (5-Fam-QXL520 labeled-elastin), P15502
T2 chain: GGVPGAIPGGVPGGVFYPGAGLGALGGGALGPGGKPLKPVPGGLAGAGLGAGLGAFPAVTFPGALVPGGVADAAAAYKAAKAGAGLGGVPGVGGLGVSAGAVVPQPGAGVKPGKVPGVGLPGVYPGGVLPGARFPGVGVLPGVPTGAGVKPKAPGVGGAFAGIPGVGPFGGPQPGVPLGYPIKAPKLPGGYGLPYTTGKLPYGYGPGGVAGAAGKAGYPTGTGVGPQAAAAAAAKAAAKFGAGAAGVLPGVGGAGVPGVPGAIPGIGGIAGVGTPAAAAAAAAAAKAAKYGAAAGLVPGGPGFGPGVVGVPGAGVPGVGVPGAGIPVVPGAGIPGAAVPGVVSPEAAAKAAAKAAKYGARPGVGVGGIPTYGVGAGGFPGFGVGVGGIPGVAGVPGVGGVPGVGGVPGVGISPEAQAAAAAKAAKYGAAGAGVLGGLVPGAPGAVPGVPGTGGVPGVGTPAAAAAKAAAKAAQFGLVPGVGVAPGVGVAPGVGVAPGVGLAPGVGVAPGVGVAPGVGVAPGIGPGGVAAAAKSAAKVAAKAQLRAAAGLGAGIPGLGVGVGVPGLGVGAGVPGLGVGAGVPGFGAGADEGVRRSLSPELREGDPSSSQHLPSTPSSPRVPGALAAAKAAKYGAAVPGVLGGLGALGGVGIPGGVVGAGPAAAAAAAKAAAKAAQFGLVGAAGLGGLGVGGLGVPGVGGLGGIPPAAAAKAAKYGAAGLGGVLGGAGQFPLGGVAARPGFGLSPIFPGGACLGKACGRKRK


What was measured:
[1] = target: T1, FluHSA2 fluorogenic peptide
[2] = target: T2, fluorescent labeled elastin protein …

Row | Protein | degradation of FITC conjugated collagen (15 ug/mL; fluorescence), native Asp f2 on 5D7A1-bound beads (FITC conjugated collagen) | cleavage of FluHSA2 (10 uM, 16 hours at 22 C; fluorescence), native Asp f2 on anti-Asp f2-immobilized beads [1] | cleavage of FluHSA2 (fluorescence, Ex 485 nm/Em 535 nm), Asp f2 captured on 5D7A1-bound beads [1] | degradation of 5-Fam-QXL520 labeled elastin (fluorescence), native Asp f2 on 5D7A1-bound beads [2]
1 | native Asp f2 (glycosylated form) of Aspergillus fumigatus (protein) ATPHEPVFFSWDAGAVTSFPIHSSCNATQRRQIEAGLNEAVELARHAKAHILRWGNESEIYRKYFGNRPTMEAVGAYDVIVNGDKANVLFRCDNPDGNCALEGWGGHWRGANATSETVICDRSYTTRRWLVSMCSQGYTVAGSETNTFWASDLMHRLYHVPAVGQGWVDHFADGYDEVIALAKSNGTESTHDSEALQYFALEAYAFDIAAPGVGCAGESHGPDQGHDTGSASAPASTSTSSSSSGSGSGATTTPTDSPSATIDVPSNCHTHEGGQLHCT | native Asp f2 is also capable of degrading the human proteins collagen and elastin | FluHSA2 was found to exhibit high specificity for cleavage by Asp f2 compared with Asp f3 | both native and recombinant Asp f2 cleave the FluHSA2 substrate | native Asp f2 is also capable of degrading the human proteins collagen and elastin
2 | active recombinant Asp f2 (residues 32-310) (protein) ATPHEPVFFSWDAGAVTSFPIHSSCNATQRRQIEAGLNEAVELARHAKAHILRWGNESEIYRKYFGNRPTMEAVGAYDVIVNGDKANVLFRCDNPDGNCALEGWGGHWRGANATSETVICDRSYTTRRWLVSMCSQGYTVAGSETNTFWASDLMHRLYHVPAVGQGWVDHFADGYDEVIALAKSNGTESTHDSEALQYFALEAYAFDIAAPGVGCAGESHGPDQGHDTGSASAPASTSTSSSSSGSGSGATTTPTDSPSATIDVPSNCHTHEGGQLHCT |  |  | both native and recombinant Asp f2 cleave the FluHSA2 substrate | 
